Experimental data reported in US6344436.

Molecular target: LDL receptor (UniProt P01130)
Assay: cell-based or functional assay

Chain of LDL receptor (P01130 22-860 limits assumed): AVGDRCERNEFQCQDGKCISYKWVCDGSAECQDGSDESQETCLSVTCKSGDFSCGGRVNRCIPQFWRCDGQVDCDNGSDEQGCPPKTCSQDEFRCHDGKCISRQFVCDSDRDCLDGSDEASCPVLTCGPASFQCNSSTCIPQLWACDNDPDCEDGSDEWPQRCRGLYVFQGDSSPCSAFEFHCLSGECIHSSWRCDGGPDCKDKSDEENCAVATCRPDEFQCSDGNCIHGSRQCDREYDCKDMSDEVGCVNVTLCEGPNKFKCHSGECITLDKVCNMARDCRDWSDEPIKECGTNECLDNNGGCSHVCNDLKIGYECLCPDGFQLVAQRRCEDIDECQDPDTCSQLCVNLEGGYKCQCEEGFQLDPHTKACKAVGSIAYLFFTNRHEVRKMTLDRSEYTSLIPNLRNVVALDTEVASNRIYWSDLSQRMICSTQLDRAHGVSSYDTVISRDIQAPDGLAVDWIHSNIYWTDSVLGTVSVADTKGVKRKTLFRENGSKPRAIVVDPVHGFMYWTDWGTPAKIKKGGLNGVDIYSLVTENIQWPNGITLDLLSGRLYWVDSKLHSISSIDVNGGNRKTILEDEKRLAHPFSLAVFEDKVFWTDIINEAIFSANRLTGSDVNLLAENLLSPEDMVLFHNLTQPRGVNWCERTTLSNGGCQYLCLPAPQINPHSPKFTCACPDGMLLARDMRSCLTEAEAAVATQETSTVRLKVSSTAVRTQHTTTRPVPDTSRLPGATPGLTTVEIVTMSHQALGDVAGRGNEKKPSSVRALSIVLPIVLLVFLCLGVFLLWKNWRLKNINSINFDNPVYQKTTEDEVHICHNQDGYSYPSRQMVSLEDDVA

expression (transfection of 293 epithelial cells with peptide:DNA complexes), relative to wild-type apoE peptide complexes (% of wild-type apoE peptide complexes): 5
Substance: distearyl-glycyl-apoE-3^129-169(Q142) (peptide)
